Laboratory results taken from publication PMC10992996, “Human CRB1 and CRB2 form homo- and heteromeric protein complexes in the retina” (Life Science Alliance, 2024).

Molecular target: T1, CRB1-FLAG p.Y1161C (human, UniProt P82279 26-1406, p.Y1161C)
T1 construct: Crumbs homolog 1, canonical form, human, cDNA NM_202153 as printed, with a patient missense mutation; Made by site-directed mutagenesis of m1; also called CRB1 p.Y1161C; CRB1-FLAG MT; source: HEK293T, transfected, in lysate; not shown: Strep-Strep-FLAG, N-terminal, kept
T1 sequence (looked up): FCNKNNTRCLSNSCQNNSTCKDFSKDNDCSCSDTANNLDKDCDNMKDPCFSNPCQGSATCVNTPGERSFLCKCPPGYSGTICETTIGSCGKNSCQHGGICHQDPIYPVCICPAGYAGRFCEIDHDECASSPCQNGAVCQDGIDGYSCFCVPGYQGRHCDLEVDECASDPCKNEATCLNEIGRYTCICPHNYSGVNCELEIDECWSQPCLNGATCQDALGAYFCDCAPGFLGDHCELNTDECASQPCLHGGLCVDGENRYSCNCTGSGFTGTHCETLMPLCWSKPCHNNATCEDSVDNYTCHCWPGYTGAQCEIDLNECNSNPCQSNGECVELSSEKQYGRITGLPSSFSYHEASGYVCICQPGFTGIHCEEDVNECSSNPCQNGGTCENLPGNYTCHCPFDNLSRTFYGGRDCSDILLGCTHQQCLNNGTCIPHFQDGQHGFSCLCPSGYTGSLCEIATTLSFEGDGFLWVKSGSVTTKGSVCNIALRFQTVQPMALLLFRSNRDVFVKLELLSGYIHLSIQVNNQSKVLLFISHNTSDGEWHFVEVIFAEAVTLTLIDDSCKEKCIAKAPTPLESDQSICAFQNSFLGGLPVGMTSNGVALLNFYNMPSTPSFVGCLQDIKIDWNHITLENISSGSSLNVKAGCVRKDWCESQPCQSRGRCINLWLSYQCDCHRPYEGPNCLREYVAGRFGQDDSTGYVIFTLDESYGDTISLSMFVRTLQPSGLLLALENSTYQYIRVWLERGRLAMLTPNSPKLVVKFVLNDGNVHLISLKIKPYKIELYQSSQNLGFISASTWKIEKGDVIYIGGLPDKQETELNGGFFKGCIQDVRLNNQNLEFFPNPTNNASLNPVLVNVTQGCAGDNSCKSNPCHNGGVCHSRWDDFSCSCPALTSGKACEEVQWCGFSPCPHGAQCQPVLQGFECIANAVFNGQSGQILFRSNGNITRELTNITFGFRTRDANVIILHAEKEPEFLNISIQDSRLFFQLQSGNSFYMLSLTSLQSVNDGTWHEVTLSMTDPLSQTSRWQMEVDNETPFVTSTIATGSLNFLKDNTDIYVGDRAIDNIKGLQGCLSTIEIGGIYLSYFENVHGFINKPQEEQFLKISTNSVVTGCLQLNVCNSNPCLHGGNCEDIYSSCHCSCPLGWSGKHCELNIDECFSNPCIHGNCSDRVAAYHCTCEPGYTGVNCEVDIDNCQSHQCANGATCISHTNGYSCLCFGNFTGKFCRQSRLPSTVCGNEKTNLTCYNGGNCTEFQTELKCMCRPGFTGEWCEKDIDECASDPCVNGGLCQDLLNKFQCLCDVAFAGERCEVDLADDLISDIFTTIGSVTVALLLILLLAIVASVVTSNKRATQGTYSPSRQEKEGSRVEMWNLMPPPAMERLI
Assay: co-IP; HEK293T cells co-transfected pairwise with a FLAG and an HA construct, 48 h; lysis in TBS (30 mM Tris-HCl pH 7.4, 150 mM NaCl) with 0.5% Nonidet P40; FLAG-IP on ANTI-FLAG M2 Affinity Gel 60-90 min at 4°C, elution with FLAG peptide; Western blot with HA and FLAG antibodies; for mutants HA/FLAG signal in eluates relative to WT, three biological replicates
Settings: partners not purified

percent reduction of the interaction relative to CRB1 WT: 11%
B1: Human canonical CRB2 (Crumbs homolog 2) (natural protein)
chain: not shown
notes: Crumbs homolog 2, human, cDNA NM_173689; Stood as bait (FLAG copy) and as prey (HA copy) in the pairwise co-IP matrix; each copy carries only one of the two tags; The FLAG copy was the bait of the mass spectrometry pull-downs; also called CRB2-FLAG; CRB2-HA; source: HEK293T, transfected, in lysate (co-IP); HEK293T, transfected, FLAG-IP on beads, washed and purified with 0.01% SDS (retina …)
